Measurements taken from patent CN101696242A.

Target: CVS-11
Assay: cell-based or functional assay

B1: 人源抗狂犬病毒中和抗体Fab (Fab, V domains shown)
VH: ELLESGGGLVQPGGSLRLSCAASGFTFSSYAMSWVRQAPGKGLEWVSSINRSGDITTYADSVKGRFTISRDNSKNTLYLQMNSLRAEDTAVYYCAKKTRRFDYWGQGTLVTVSS
VL: ESALTQPRSVSGSPGQSVTISCTGTSSDIGGYNFVSWYQQHPGKAPKLMIYDATKRPSGVPDRFSGSKSGNTASLTISGLQAEDEADYYCCSYAGDYTPGVVFGGGTKLTVLG
Work on B1 yielded a 中和效价 (狂犬病荧光抗体病毒中和试验 FAVN, BHK-21细胞) of 10.3 IU/mL.
